Source: the DeepSol protein solubility set

Assay: soluble on expression in E. coli; label from the status in PepcDB or PDB records

| Sequence | soluble on expression in E. coli |
| --- | --- |
| SLVPRVMSTQHPDNARIPFFAASEVLNGEDEVREAYYVFSHFKCDEQMWDFEGKEADAHIVRKLLSSYYDFFSSRPLGKDFRLTMRVPNPEIEKGEAKLLAETLEMIPRSYDYVRSLGIEHPPIFEVILPMTRSAEEVMKVHAFYRDFVAGKGRFELLGEKVSDWLGDFLPEEIKVIPLFEDRDSLMRAAEISERYAEWAELDELRVFLARSDPAMNYGFVAATIYVKKALYDLSQLGISTYPILGVGSCPFRGGFSPKNLSVLDEFPSVYTFTVQSAFKYDYEFGDVRRAIKRAKEAARRKSDYVDEEHLQVAEKLKDGYRRRIAKIAEIVNRISSRIPRRRMRKLHVGLFGYSRGEEIKLPRAITFCASLYSIGLPSEIIGIAEMSDKDYEAVCEVFKNFDGMMESAMSLFNPESLKIVDLSMDFERAKELFGYEPDERHLEKTNEIIKQIDGDIKNLVVEAGILRGFLG | soluble |
| MSLNNVIFSQKLYDTAQMIVDGCMGDADPACQTACPMHTDVKQYVRMAGEGNFQGALDLIRSKLFLPQTLGRICAHPCEASCRRNTEFGQPISVAGIKRFVAEKMDNQDHWDLNIAPLTNKHIAIVGAGPAGAQAAIELRRQGHEVTIYEKLDVYGGMMRVGIPEYRLPRDVIDFEYSYLAMLGIKTQFGVEIGKDISFDTLRSEHDAVILAHGAHVGSIIPLPGHDNDGVFSAVEYLKEISETRQFPRACKRVMVIGGGDVAMDCARSSWRIGASDVYQCSLESLESLPASQIEIDESLEEGVEFNAGWGPVAIEHENGKVTGITIKKVLSIFDEQGNFAPQYSEESKTISVDTVVFATGQIVADITDGALEQTRGGRYVVDKQTLASSLEDVFVAGDACGGNIVIEAMALGRKAAMSVERFLTARPLTEDRDFEQEYSYSSRLDVPLPKGTVDTPRLHGELRDAEERKQDFAQVDLGFTEEQIKQEASRCLQCSCKLCMTECIMMNDFSDCPKTIFSDFVNNKSMDPLLAYSCNACDQCTIVCPKDFPMKEMFLGARTDFVKANNGESPMPGHKAINMHQKLGFSKIFTMAKRAVSTKEGHHHHHH | not soluble |
| NSAHQFHNQQEGEHYILAGYPWFKCRARDMFISLPGLTLALEEVDQFEDVMKTAEKAIRSFINDEPAGYKIYEMEHPDVLLWAVWALQQYAKETSREQCRQKYGELLKDIIEFIRQRKHENLFLHENGLLYANGTDKAITWMNSTVNGHPVIPRTGYIVEFNALWYNALRFVADLVREDGNVLLADALDAQAEVTGKSFIEVFRNEYGYLLDYVDGNMMDWSVRPNMIFAVAFDYSPLDRAQKKQVLDIATKELLTPKGLRTLSPKSGGYNPNYVGPQIQRDYAYHQGTAWPWLMGFYMEAYLRIYKMSGLSFIERQLIGLEDELTIHCISSLPELFDGNPPFKGRGAVSFAMNVAEVLRILKLLSKYY | not soluble |
| SEQKYEEDIQKLQQEIEMLEAEQEETLRSIFVQHGDRLQQGVKSACEERGGGGAQQHTLSKLITEVRELEKDLRRQTEINGITLNECFVKTLHKSERKLIQQLRLAGHCGLLLFQVEFAVTEIQEDNVLHRRVTELNIVVDGVEFKDFSAFVSRVEDTKDLLLFFRTLRTFSERCEDRRQTFQHFQEKYPDVVNLPEGCRSEIMIIRSPQLPGISMTLFWKIHVSKEGVVKPLLDLLLKMPDQALELDTKKVMEKASDYFQSLLQLLGVEASIEGLIRTVCS | soluble |
| MGSDKIHHHHHHMSELSQLSPQPLWDIFAKICSIPHPSYHEEALAAHILEWAKEKGIYAERDQVGNILLRKAATAGMENRKPVVLQAHLDMVPQKNNDTVHDFTTDPIQPYVDGEWLKARGTTLGADNGIGMASALAVLADPSVEHGPLEVLLTMTEEAGMDGAFGLQPNWLQGEILINTDSEEEGEIYMGCAGGIDFITRLPLVREVPPAGYQTLKLTIKGLKGGHSGGDIHLGLGNANKLLARFLFEQAEALDIRILDLNGGTLRNAIPREAFATLSLPAANVEQLKTLSQDYLAVLKNELSAVEKNLTVLVEANDSNEHPLTQDSRDRLLGLLNATPNGVIRMSDDVKGVVETSLNLGVVTMEDDHAEIICLIRSLIDSGKDAVVGTLTALGQLAGAKTSPKGGYPGWQPDAHSPVMALVRETYQKQFNKTPNIMVIHAGLECGLFKKPYPDMDMVSIGPTITGPHSPDEQVHIGSVDLYWKLLTELLKAIPPRA | not soluble |
| MEQIVSSLWSDCLNHLQTKVSPIDYSTWLRPLQASFANEELTLYAQNPFVENWVKDKFLTEIIDLARFLSKNEQLKITIRVGNKPTEQNLSASSTNKEELTQDTVHKFKTGLNGRLTFDNFVQGKSNQLAKAVAQQVADNPGESHCNPFSLYGGTGLGKTHLLHAVGNEILKRNPQARVVYIHSERFVQDMVKALKNNTIENFKKFYRSLDVLMIDDIQFFAKKEASQEEFFHTFNSLFERNKQIILASDHFPKNIENIEERIKSRLNWGVSTAIEPPELETRVAILMKKAEERNVELPEEVAFYLGQKLRTNVRELEGAINRVSAWCNFTKRQITIDAVRETLKDLIASYDHLVTIENIQKIVAEYYNIKMADLKSKSRTRSIARPRQMAMALAKELTSHSLPEIGREFGGRDHTTVMHACKTINELRDTDNSIQEDYTNLTRKLSSLEHHHHHH | soluble |
| MDKQIGFIGCGNMGMAMIGGMINKNIVSSNQIICSDLNTANLKNASEKYGLTTTTDNNEVAKNADILILSIKPDLYASIINEIKEIIKNDAIIVTIAAGKSIESTENAFNKKVKVVRVMPNTPALVGEGMSALCPNEMVTEKDLEDVLNIFNSFGQTEIVSEKLMDVVTSVSGSSPAYVYMIIEAMADAAVLDGMPRNQAYKFAAQAVLGSAKMVLETGIHPGELKDMVCSPGGTTIEAVATLEEKGLRTAIISAMQRCTQKSVELSGQTKKLEHHHHHH | soluble |
| MASKDKEINNTIDAIEDKNFKQVYKDSSYISKSDNGEVEMTERPIKIYNSLGVKDINIQDRKIKKVSKNKKRVDAQYKIKTNYGNIDRNVQFNFVKEDGMWKLDWDHSVIIPGMQKDQSIHIENLKSERGKILDRNNVELANTGTAYEIGIVPKNVSKKDYKAIAKELSISEDYIKQQMDQNWVQDDTFVPLKTVKKMDEYLSDFAKKFHLTTNETESRNYPLEKATSHLLGYVGPINSEELKQKEYKGYKDDAVIGKKGLEKLYDKKLQHEDGYRVTIVDDNSNTIAHTLIEKKKKDGKDIQLTIDAKVQKSIYNNMKNDYGSGTAIHPQTGELLALVSTPSYDVYPFMYGMSNEEYNKLTEDKKEPLLNKFQITTSPGSTQKILTAMIGLNNKTLDDKTSYKIDGKGWQKDKSWGGYNVTRYEVVNGNIDLKQAIESSDNIFFARVALELGSKKFEKGMKKLGVGEDIPSDYPFYNAQISNKNLDNEILLADSGYGQGEILINPVQILSIYSALENNGNINAPHLLKDTKNKVWKKNIISKENINLLTDGMQQVVNKTHKEDIYRSYANLIGKSGTAELKMKQGETGRQIGWFISYDKDNPNMMMAINVKDVQDKGMASYNAKISGKVYDELYENGNKKYDIDE | soluble |
| MAVRIVTDSSSGLPAEIAEELGITVVDLHLVASENQVSTAGLSALELTAAYARQLERGGDAGVVALHLSKELSSTWSAAHTAAAVFDGTVDVVDTQSVGMCVGAAAMAAARLAQGGASLRECADMARDTLRRSETWLYLHRMEEMRRSGRITTATAVVSAALATKPIMQLRGGHVELAVKTRTQSKAFARLVAVISDRCAGEPAFVAIQHHQALEAAHSLQSQLTAALPKGSSFMIMDMDQALSVHCGVGALGISVVFSSYSDTAPIDLSTTS | not soluble |
| MGIGSKILENNIQKSISLGFYHSHSELRKSFYEFFKSKNHEILRSSSVIPDENDGTLLFTNAGMNQFKPLILSSTESRRVANIQKCIRAGGKHNDLDDVGKDLHHQTFFEMMGNWSFNDAFSKEEACRYAWEYLVEILGINADRLYVSYFGGIEKLGLPEDRECREIWKRIGVSSNRILPFVAENFWEMGAAGPCGPCTEIHYDRIGGRDASRLVNIDDSVVEIWNIVFMSSVRDSCGQIRHLGKNHIDTGMGFERLLSVVQNKTSNFDTDVFTPILEKTSELAKKQYTGSLDSRQDATFRLVADHIRAATVAISDGAVPDGTGCGFIVRKMMRRAFLQGISKLGIERYAMSELVPVVASTMKEVYPEIHDTSTHIRKIFNDEEAQFWKTVDKAKKMFDSVAAESKSPIISGRKAFNLFETHGLPLAVTVELARNIGREVDETEFERCRLEAQKVSQKASQFKLPISADDFPSHSDKEKYSYVFRNGKYEFPQVKTRILQVYKDQQKAESLEANDRGFLVLEECQFYGEQGGQTSDTGHLLIDGREVFEVENAKKIAGGAVTVLFGRALLPIRRDLRVEQKLDETRREGVMRAHSATHLLNWALQKLGVGSGQKGSSVDCDRFRFDYSTGDEDLSKEQRTELLIKCEMKMREFIQNGGFTEIIETSLEEAKKIENLQSDVKEDRIGGASVRVVALGSGADVPVECCSGTHIHDVRVIDDVAIMSDKSMGQRLRRIIVLTGKEAAACRNYTKSIYEDLRSTDPKERSKTGKNIDWKRVPIADQARISILLKQKK | not soluble |
| MAHHHHHHMPSWCLIESDPAVFTELIQRFGAQGVAVEEIVQLEQEYLRVHTNVYGLILLFKWKARKEGAATDGVVVPDAPVFFVQQTVNNACATLSIVNILLNHKESIELGEVLGNFLSFTQDMNPYLRGTQVGECDALREAHNSFAPVELFSLDHSVPDAGDAYHFVSFVYKNSAIWELDGLQEGPILASDASDENYRDKLMEVVRKRIRDHSAEDTTGAGQGISFSLMAVVDDPLVLLERRIYEATLQEAPTHYLEEQLNQLTKQRAREKLENQRRRHNYVPMIVELLKALAEKGQLKGILDDALAKKSGQGAKQ | soluble |
| MGSDKIHHHHHHLSKLYPHAKNRQDSGMDRNPTLAQWQLAQELRRLRGDRKFSEVVKAARTTGGSLARWETPGDRGAVPGPAALERLLQIYGAEDQLERLLSLRKEARQPDRWQPYGLERSYRTYANIESQATSIEYYQSQIVPGIAQTEAYARAVIEATLHPSSDVDREVQARMERQRVLSKPERPDLWLIIAEGALRQQVGTSQVMADQIDRLIELSQEPGITLQVLPFTAGAHVAMRLAGFVIMSIAQHGITTVYIEGQNSGMFFTDSEDLAEYGMIFNRLRAACLDEGRPTRTLLERIARDHRRGEG | not soluble |
| MAEKEHNPGNVKPNRSWTSVLGTKITFSEGLILNIEGYYKYIFNRMYIPVSIGLDDFDIRPQFNGEGRVWGIDLMLQKLQSRYWDGWLSYSYSWARYRDPSSGNATIGFSGGTRGNDWYFPNFHRFHNLNLVINIKPAPQFNFYTRFGLASGTQLPRRTTDRPATYPVFMFDDPETPGIPKFVQRYNWPSETDEDNRTTPTLSMDIKFSFFGKNRTGKTRYEIYFALENVLSLVYRPQGNTRFNTFTGVIETGSDAASYGLPIPIPSFGFKFSY | not soluble |
| MADVALRITETVARLQKELKCGICCSTYKDPILSTCFHIFCRSCINACFERKRKVQCPICRSVLDKRSCRDTYQITMAVQNYLKLSEAFKKDIENMNTFKSLPPEKMFMESQMPLDITIIPENDGKRCAPDFAIPFLPVRRKRPSRPQPPSAFAEEPAEPVEPPEPATKQPVELQSRVFPLEKLKKDVETSTETYKISREELKNVDIEEYINTLRENSTEIDEIDALFQLMPTMRQFLRNNINQLMEKFHVAPPKKSEKPANRRVSFASSQDLENIKIMTASESLETPPEPIQKLAQKPEVFKSTQNLIDLNLNTAVKKPVVVASDDDEVVEDSEGELQIDEDDLANVTCATSVRNIGKSLCAEYIRGVRQICRICRLPSSANFKKVDLPNLPSSANFEICRTRQKFDSTISTKTTDFFAKNSQLIELVQQCGGEILSCYENLSPEKLYIIFSKHSKAIEESKNIENLYKCDVVTMEWVLDSISEYLILPTQPYKAVDSIGCLQD | not soluble |
